Results reported in IntAct's records for PubMed 24469400.

B1: Syntaxin-4 (Rattus norvegicus (Rat)), Q08850 (parent)
chain: MRDRTHELRQGDNISDDEDEVRVALVVHSGAARLSSPDDEFFQKVQTIRQTMAKLESKVRELEKQQVTILATPLPEESMKQGLQNLREEIKQLGREVRAQLKAIEPQKEEADENYNSVNTRMKKTQHGVLSQQFVELINKCNSMQSEYREKNVERIRRQLKITNAGMVSDEELEQMLDSGQSEVFVSNILKDTQVTRQALNEISARHSEIQQLERSIRELHEIFTFLATEVEMQGEMINRIEKNILSSADYVERGQEHVKIALENQKKARKKKVMIAICVSVTVLILAVIIGITITVG

Variants of: B1
Conditions: with vamp2_rat Vamp2, P63045
Chain of vamp2_rat Vamp2, P63045 (P63045 whole entry): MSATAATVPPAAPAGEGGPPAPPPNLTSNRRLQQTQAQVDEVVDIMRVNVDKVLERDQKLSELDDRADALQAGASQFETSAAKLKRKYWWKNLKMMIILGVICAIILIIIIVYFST

Variant	effect of a mutation on the interaction
MRDRTHELRQGDNISDDEDEVRVALVVHSGAARLSSPDDEFFQKVQTIRQTMAKLESKVRELEKQQVTILATPLPEESMKQGLQNLREEIKQLGREVRAQLKAIEPQKEEADENYNSVNTRMKKTQHGVLSQQFVELINKCNSMQSEYREKNVERIRRQLKITNAGMVSDEEAAQMLDSGQSEVFVSNILKDTQVTRQALNEISARHSEIQQLERSIRELHEIFTFLATEVEMQGEMINRIEKNILSSADYVERGQEHVKIALENQKKARKKKVMIAICVSVTVLILAVIIGITITVG [L173A;E174A]	increasing interaction strength
